Sequences and labels used below:
T1: SUMM2-GFP (Arabidopsis thaliana (Col-0 cDNA), UniProt P60838 1-894)
T1 sequence (looked up): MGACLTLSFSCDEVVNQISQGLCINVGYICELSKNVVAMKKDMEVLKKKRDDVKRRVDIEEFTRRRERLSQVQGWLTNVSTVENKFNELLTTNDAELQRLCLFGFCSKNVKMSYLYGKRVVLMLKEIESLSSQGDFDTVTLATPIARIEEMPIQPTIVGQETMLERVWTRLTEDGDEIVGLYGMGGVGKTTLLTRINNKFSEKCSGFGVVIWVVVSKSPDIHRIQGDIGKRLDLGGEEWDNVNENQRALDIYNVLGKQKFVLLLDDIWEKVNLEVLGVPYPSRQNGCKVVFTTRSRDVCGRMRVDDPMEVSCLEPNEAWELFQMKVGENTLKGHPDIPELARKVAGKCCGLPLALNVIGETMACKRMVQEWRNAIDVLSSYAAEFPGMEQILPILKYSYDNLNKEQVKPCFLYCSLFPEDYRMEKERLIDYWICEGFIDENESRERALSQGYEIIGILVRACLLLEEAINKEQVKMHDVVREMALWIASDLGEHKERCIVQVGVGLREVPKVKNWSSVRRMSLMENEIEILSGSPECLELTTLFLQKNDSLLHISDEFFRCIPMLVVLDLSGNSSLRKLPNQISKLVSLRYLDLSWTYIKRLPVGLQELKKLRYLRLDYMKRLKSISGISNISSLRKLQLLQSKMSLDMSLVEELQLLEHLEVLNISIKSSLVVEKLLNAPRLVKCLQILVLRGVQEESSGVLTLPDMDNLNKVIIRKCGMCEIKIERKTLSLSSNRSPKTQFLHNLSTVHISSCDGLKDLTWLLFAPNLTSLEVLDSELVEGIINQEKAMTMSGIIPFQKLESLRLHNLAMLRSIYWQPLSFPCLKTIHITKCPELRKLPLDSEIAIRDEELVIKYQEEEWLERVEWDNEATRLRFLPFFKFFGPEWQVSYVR

T2: BIR2-mCherry (UniProt Q9LSI9 29-605)
T2 sequence (looked up): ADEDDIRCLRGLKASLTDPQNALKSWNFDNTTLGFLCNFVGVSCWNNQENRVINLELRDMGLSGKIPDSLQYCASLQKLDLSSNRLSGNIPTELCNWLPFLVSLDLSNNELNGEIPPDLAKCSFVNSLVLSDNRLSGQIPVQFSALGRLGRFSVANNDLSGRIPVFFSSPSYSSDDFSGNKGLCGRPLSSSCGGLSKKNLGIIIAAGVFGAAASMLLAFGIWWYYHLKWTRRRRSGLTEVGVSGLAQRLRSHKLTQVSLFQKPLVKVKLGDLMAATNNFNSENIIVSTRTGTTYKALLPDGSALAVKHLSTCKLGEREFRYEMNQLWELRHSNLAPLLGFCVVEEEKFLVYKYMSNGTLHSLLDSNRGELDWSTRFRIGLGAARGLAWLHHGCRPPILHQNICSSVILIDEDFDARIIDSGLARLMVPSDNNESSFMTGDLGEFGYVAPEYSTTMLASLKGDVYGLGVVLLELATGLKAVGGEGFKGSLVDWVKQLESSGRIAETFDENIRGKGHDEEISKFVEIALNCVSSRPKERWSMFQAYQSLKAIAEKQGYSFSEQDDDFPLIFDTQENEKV

B1: LET1-GFP (receptor, Arabidopsis thaliana (Col-0 cDNA), UniProt O22187 29-834, looked up)
chain: DTSTYTRPENFYVNCGSDSNVFYGGQTFVGDTNSSTNSVSFTNKGTEVINDQSSVAPEIYRTVRIFRHPSSYKFKLDSLGLHFVRLHFSVVFSRADLLTARFTVSATSGSNHHLKSFSPQNLTNTPRVEEFLLMMNSLEFEIRFVPDHSSLALINAIEVFSAPDDLEIPSASDKNLHTIYRLNVGGEKITPDNDTLGRTWLPDDDDFLYRKDSARNINSTQTPNYVGGLSSATDSTAPDFVYKTAKAMNRSSNEQVGMLMNVTWSFKVKSNHRHFIRIHFSDILSNLSNSDSDFYLFVNGYWRVDVKPSEQPRLASPFFKDVVNVSDGSGLLNISIGTKEANKDAGFLNGLEMMEVLSKSGSDYSNRSSSRVHIITGCAVAAAAASALVFSLLFMVFLKRRRSKKTKPEVEGTVWSPLPLHRGGSSDNRPISQYHNSPLRNLHLGLTIPFTDILSATNNFDEQLLIGKGGFGYVYKAILPDGTKAAIKRGKTGSGQGILEFQTEIQVLSRIRHRHLVSLTGYCEENSEMILVYEFMEKGTLKEHLYGSNLPSLTWKQRLEICIGAARGLDYLHSSGSEGAIIHRDVKSTNILLDEHNIAKVADFGLSKIHNQDESNISINIKGTFGYLDPEYLQTHKLTEKSDVYAFGVVLLEVLFARPAIDPYLPHEEVNLSEWVMFCKSKGTIDEILDPSLIGQIETNSLKKFMEIAEKCLKEYGDERPSMRDVIWDLEYVLQLQMMTNRREAHEEDSTAINSGGSLVAPRLMVSDSFSTNSIFQNGDESKNRFGFTDSSETRVFSQLKISDAR
B2: MEKK2-mCherry (natural protein, Arabidopsis thaliana (Col-0 cDNA), UniProt O81472 1-773, looked up)
chain: MKKSSDKSPVRQHDTATQINSDAVSSSTSFTDSDSTCSFLTPSMEFPDRISFRRIDFSEAAPTGVVLPSTSSELTRSNSSENKIPNEDISVSTSSRYLVFDKILALMKKSPGRRGDKTSPARRLDRSDAVRRNIDYDAGEDSSSLLITRSLDFPNRTSFRVDGVDDGEIDRIYQYIGVSGPEDFAISSDAWKARMEHERSSSDVVNKLKSLDLDSREAGPSGGVVASSSMNHKFQGHDLSEAGSIGVVVASNFTLSESNKIENLNSLRDKEIVDGDMVENRCGIERKPTILVKSRGYLVHNDDVGVGGGIKGVRPPVLNVPRADKEVVDGGTVESKSGIEWKPTILVKSKGYLVSNDGGIKGVTSPVLNLRPTDKEVVDSGTVENRRGIKGVRPSVLKPPPVMKLPPVDLPGSSWDILTHFAPDSEIVRRPSSSSSSENGCDEEEAEDDKVEKEETGDMFIQLEDTTDEACSFTTNEGDSSSTVSNTSPICVSGGSINTSWQKGQLLRQGSFGSVYEAISEDGDFFAVKEVSLLDQGSQAQECIQQLEGEIALLSQLEHQNILRYRGTDKDGSNLYIFLELVTQGSLLELYRRYQIRDSLISLYTKQILDGLKYLHHKGFIHRDIKCATILVDANGTVKLADFGLAKVSKLNDIKSRKETLFWMAPEVINRKDNDGYRSPADIWSLGCTVLEMCTGQIPYSDLEPVEALFRIRRGTLPEVPDTLSLDARHFILKCLKLNPEERPTATELLNHPFVRRPLPSSGSGSTSPLIRR
B3: BAK1-GFP (receptor, Arabidopsis, UniProt Q94F62 26-615, looked up)
chain: NAEGDALSALKNSLADPNKVLQSWDATLVTPCTWFHVTCNSDNSVTRVDLGNANLSGQLVMQLGQLPNLQYLELYSNNITGTIPEQLGNLTELVSLDLYLNNLSGPIPSTLGRLKKLRFLRLNNNSLSGEIPRSLTAVLTLQVLDLSNNPLTGDIPVNGSFSLFTPISFANTKLTPLPASPPPPISPTPPSPAGSNRITGAIAGGVAAGAALLFAVPAIALAWWRRKKPQDHFFDVPAEEDPEVHLGQLKRFSLRELQVASDNFSNKNILGRGGFGKVYKGRLADGTLVAVKRLKEERTQGGELQFQTEVEMISMAVHRNLLRLRGFCMTPTERLLVYPYMANGSVASCLRERPESQPPLDWPKRQRIALGSARGLAYLHDHCDPKIIHRDVKAANILLDEEFEAVVGDFGLAKLMDYKDTHVTTAVRGTIGHIAPEYLSTGKSSEKTDVFGYGVMLLELITGQRAFDLARLANDDDVMLLDWVKGLLKEKKLEALVDVDLQGNYKDEEVEQLIQVALLCTQSSPMERPKMSEVVRMLEGDGLAERWEEWQKEEMFRQDFNYPTHHPAVSGWIIGDSTSQIENEYPSGPR

What all share (assay): FRET or BRET
The test “MEKK2-mCherry” has as its target B2.
The target of a further test is T1, SUMM2-GFP.
For another test, the target named is T2, BIR2-mCherry.

In the test with MEKK2-mCherry, B1 registered an FRET efficiency of 13.1 ± 1.76%.

B2 gave an FRET efficiency with SUMM2-GFP of 7.99 ± 0.19%.

B3 yielded an FRET efficiency with BIR2-mCherry of 13.5%.

The values are drawn from PMC7492416 (Nature plants, 2020).
